Reference: patent US20250296999A1

Target: alpha v beta 3 integrin on human podocytes (human) (UniProt P06756)
Sequence (P06756 31-1048, chain 1 of 2): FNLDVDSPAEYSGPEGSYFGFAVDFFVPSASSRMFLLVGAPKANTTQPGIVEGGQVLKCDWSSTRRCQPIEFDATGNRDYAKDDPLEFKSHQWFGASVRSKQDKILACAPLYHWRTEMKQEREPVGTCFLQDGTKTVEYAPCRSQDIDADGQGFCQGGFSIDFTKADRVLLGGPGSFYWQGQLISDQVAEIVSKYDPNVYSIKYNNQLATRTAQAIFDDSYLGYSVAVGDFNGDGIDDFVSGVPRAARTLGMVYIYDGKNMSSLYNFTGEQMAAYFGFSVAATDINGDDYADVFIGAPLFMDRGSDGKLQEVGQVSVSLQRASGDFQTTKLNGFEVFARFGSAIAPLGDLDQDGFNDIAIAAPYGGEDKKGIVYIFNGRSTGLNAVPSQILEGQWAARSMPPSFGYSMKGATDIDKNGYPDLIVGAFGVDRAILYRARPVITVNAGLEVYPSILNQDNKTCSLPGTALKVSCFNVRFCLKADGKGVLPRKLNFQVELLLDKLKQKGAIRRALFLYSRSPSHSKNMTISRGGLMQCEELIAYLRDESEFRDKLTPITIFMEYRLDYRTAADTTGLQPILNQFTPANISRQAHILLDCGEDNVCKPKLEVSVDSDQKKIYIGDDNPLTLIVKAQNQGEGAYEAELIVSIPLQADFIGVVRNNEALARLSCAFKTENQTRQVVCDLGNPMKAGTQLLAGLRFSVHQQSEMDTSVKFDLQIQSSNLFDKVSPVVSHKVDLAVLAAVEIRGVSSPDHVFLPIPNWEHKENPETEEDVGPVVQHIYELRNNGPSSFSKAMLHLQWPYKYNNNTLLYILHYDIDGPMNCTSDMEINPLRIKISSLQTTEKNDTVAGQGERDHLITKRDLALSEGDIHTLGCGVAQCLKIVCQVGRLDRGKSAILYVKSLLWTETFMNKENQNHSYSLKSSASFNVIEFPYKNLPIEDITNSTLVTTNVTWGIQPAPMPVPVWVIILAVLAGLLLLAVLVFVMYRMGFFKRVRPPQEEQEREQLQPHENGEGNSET
Sequence (P05106 27-788, chain 2 of 2, further chain): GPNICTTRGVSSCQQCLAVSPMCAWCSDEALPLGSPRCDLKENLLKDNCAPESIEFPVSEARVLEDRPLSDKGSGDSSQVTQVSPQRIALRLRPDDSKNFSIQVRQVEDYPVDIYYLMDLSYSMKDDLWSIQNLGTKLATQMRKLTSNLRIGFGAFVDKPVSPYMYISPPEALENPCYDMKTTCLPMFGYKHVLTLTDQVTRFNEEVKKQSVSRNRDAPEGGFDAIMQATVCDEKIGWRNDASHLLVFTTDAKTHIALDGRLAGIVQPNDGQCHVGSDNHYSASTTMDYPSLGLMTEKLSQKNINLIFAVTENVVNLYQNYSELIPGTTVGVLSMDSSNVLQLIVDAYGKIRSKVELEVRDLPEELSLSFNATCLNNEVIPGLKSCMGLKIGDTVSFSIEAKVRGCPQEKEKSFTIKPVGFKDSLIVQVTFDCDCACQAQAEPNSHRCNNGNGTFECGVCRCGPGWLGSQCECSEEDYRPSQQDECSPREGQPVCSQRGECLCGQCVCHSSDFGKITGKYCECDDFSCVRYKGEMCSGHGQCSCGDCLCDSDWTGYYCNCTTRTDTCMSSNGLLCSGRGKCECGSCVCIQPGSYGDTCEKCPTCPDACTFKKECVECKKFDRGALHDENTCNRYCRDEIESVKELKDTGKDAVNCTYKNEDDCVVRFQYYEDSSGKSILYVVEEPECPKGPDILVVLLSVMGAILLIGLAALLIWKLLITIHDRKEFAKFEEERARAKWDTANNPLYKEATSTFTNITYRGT

Substance: human D2D3 protein (C-terminal uPAR fragment, D2D3 protein with Linker) (from UniProt Q03405 100-303) (receptor)
- EC50 (read off the curve): 2 ng/mL
